Reference: the Immune Epitope Database (IEDB)
One block for each sequence: values may come before it.

Legend:
HLA-B*18:01 = test: IEDB peptide-MHC binding, purified MHC/direct/fluorescence; filed as Kd, often an IC50 or EC50 that approximates it; ≥ and ≤ were set here for values at or beyond the usual limits of such assays
HLA-A*02:06 = test: as above; details: source organism: Clostridium botulinum NCTC 2916
HLA-B*08:02 = test: as above; details: source organism: Clostridium botulinum NCTC 2916
HLA-B*07:02 [1] = test: as above; details: source organism: Clostridium botulinum
HLA-A*01:01 [2] = test: as above; details: source organism: Clostridium botulinum
HLA-B*08:01 [3] = test: as above; details: source organism: Clostridium botulinum NCTC 2916
HLA-B*46:01 = test: as above
HLA-B*15:01 = test: as above
HLA-A*11:01 [4] = test: as above; details: source organism: Clostridium botulinum
HLA-A*69:01 = test: as above; details: source organism: Clostridium botulinum
HLA-A*24:02 = test: as above; details: source organism: Clostridium botulinum
HLA-A*02:01 = test: as above
HLA-B*27:05 [5] = test: as above; details: source organism: Clostridium botulinum
HLA-A*02:11 = test: as above
HLA-B*15:09 = test: as above; details: source organism: Clostridium botulinum NCTC 2916
HLA-A*02:19 = test: as above
HLA-B*40:01 [6] = test: as above; details: source organism: Clostridium botulinum
HLA-B*44:02 [7] = test: as above; details: source organism: Clostridium botulinum
HLA-B*58:01 [8] = test: as above; details: source organism: Clostridium botulinum
HLA-A*02:03 = test: as above
HLA-A*03:01 = test: as above
HLA-A*31:01 [9] = test: as above; details: source organism: Clostridium botulinum
HLA-A*02:12 = test: as above
HLA-B*27:03 = test: as above; details: source organism: Bacillus anthracis str. A0488
HLA-B*15:17 = test: as above; details: source organism: Bacillus anthracis str. A0488
HLA-A*26:01 = test: as above; details: source organism: Bacillus anthracis str. A0488
HLA-B*57:01 = test: as above; details: source organism: Bacillus anthracis str. A0488
HLA-B*39:01 = test: as above; details: source organism: Bacillus anthracis str. A0488
HLA-A*02:16 = test: as above; details: source organism: Bacillus anthracis str. A0488
HLA-A*23:01 = test: as above; details: source organism: Bacillus anthracis str. A0488
HLA-A*68:02 = test: as above; details: source organism: Bacillus anthracis str. A0488
HLA-A*30:02 = test: IEDB peptide-MHC binding, purified MHC/competitive/fluorescence; filed as Kd, often an IC50 or EC50 that approximates it; ≥ and ≤ were set here for values at or beyond the usual limits of such assays; details: source organism: Bacillus anthracis str. A0488
HLA-B*51:01 = test: as above; details: source organism: Bacillus anthracis str. A0488
HLA-B*07:02 [10] = test: as above; details: source organism: Bacillus anthracis str. A0488
HLA-A*01:01 [11] = test: as above; details: source organism: Bacillus anthracis str. A0488
HLA-B*08:01 [12] = test: as above; details: source organism: Bacillus anthracis str. A0488
HLA-A*30:01 = test: as above; details: source organism: Bacillus anthracis str. A0488
HLA-A*11:01 [13] = test: as above; details: source organism: Bacillus anthracis str. A0488
HLA-B*27:05 [14] = test: as above; details: source organism: Bacillus anthracis str. A0488
HLA-A*66:01 = test: as above; details: source organism: Bacillus anthracis str. A0488
HLA-B*14:02 = test: as above; details: source organism: Bacillus anthracis str. A0488
HLA-B*40:01 [15] = test: as above; details: source organism: Bacillus anthracis str. A0488
HLA-B*53:01 = test: as above; details: source organism: Bacillus anthracis str. A0488
HLA-B*44:02 [16] = test: as above; details: source organism: Bacillus anthracis str. A0488
HLA-B*58:01 [17] = test: as above; details: source organism: Bacillus anthracis str. A0488
HLA-A*31:01 [18] = test: IEDB peptide-MHC binding, purified MHC/competitive/fluorescence; ≥ and ≤ were set here for values at or beyond the usual limits of such assays; details: source organism: Homo sapiens
[19] = source organism: Clostridium botulinum
[20] = source organism: Clostridium botulinum NCTC 2916
[21] = source organism: Bacillus anthracis str. A0488

Sequence: RVYINVVVK
- Kd (HLA-B*18:01; [19]): ≥ 20 µM
- Kd (HLA-A*02:06): 0.263 µM
- Kd (HLA-B*08:02): ≥ 20 µM
- Kd (HLA-B*07:02 [1]): ≥ 20 µM
- Kd (HLA-A*01:01 [2]): ≥ 20 µM
- Kd (HLA-B*08:01 [3]): ≥ 20 µM
- Kd (HLA-B*46:01; [19]): ≥ 20 µM
- Kd (HLA-B*15:01; [19]): ≥ 20 µM
- Kd (HLA-A*11:01 [4]): 0.484 µM
- Kd (HLA-A*69:01): ≥ 20 µM
- Kd (HLA-A*24:02): ≥ 20 µM
- Kd (HLA-A*02:01; [19]): 0.982 µM
- Kd (HLA-B*27:05 [5]): ≥ 20 µM
- Kd (HLA-A*02:11; [20]): 0.603 µM
- Kd (HLA-B*15:09): ≥ 20 µM
- Kd (HLA-A*02:19; [20]): 2.15 µM
- Kd (HLA-B*40:01 [6]): ≥ 20 µM
- Kd (HLA-B*44:02 [7]): ≥ 20 µM
- Kd (HLA-B*58:01 [8]): ≥ 20 µM
- Kd (HLA-A*02:03; [20]): 0.599 µM
- Kd (HLA-A*03:01; [19]): 0.241 µM
- Kd (HLA-A*31:01 [9]): 0.231 µM
- Kd (HLA-A*02:12; [20]): 0.697 µM

Sequence: WDAYIPHYV
- Kd (HLA-B*27:03): ≥ 20 µM
- Kd (HLA-B*18:01; [21]): ≥ 20 µM
- Kd (HLA-B*15:17): ≥ 20 µM
- Kd (HLA-A*26:01): ≥ 20 µM
- Kd (HLA-B*46:01; [21]): ≥ 20 µM
- Kd (HLA-B*15:01; [21]): ≥ 20 µM
- Kd (HLA-B*57:01): ≥ 20 µM
- Kd (HLA-B*39:01): ≥ 20 µM
- Kd (HLA-A*02:01; [21]): ≥ 20 µM
- Kd (HLA-A*02:11; [21]): ≥ 20 µM
- Kd (HLA-A*02:19; [21]): ≥ 20 µM
- Kd (HLA-A*02:03; [21]): ≥ 20 µM
- Kd (HLA-A*02:16): ≥ 20 µM
- Kd (HLA-A*23:01): ≥ 20 µM
- Kd (HLA-A*03:01; [21]): ≥ 20 µM
- Kd (HLA-A*68:02): ≤ 0.001 µM
- Kd (HLA-A*02:12; [21]): ≥ 20 µM
- Kd (HLA-A*30:02): ≥ 5 µM
- Kd (HLA-B*51:01): 0.535 µM
- Kd (HLA-B*07:02 [10]): ≥ 5 µM
- Kd (HLA-A*01:01 [11]): ≥ 5 µM
- Kd (HLA-B*08:01 [12]): ≥ 5 µM
- Kd (HLA-A*30:01): ≥ 5 µM
- Kd (HLA-A*11:01 [13]): ≥ 5 µM
- Kd (HLA-B*27:05 [14]): ≥ 5 µM
- Kd (HLA-A*66:01): ≥ 5 µM
- Kd (HLA-B*14:02): ≥ 5 µM
- Kd (HLA-B*40:01 [15]): ≥ 5 µM
- Kd (HLA-B*53:01): ≥ 5 µM
- Kd (HLA-B*44:02 [16]): ≥ 5 µM
- Kd (HLA-B*58:01 [17]): ≥ 5 µM

- IC50 (HLA-A*31:01 [18]): 0.357 µM
Sequence: VTMGTGTFGR
